The target in series [1] is taxol-stabilized microtubules. Kind of series: Microtubule cosedimentation assay, untreated microtubules. The format is binding. The following applies: motor domain alone, 50 nM, absence of nucleotide; modified Hill equation; at least three independent experiments; read-out: apparent Kd for microtubules. The protocol:
(§1) Full-length MCAK complex was diluted in S buffer (50 mM NaCl, 20 mM Hepes pH 7.0) to 50 nM, in absence of nucleotide to prevent MCAK-dependent microtubule depolymerisation. To assemble an MCAK motor-CT domain complex, 50 nM of the motor domain and 100 nM of the CT domain were used. Microtubule binding assays were performed as described ([Cheeseman et al., 2006]) using equal volumes of taxol-stabilized microtubules in BRB80 and MCAK in S buffer. MCAK was quantified using anti-MCAK antibody against the C terminus of MCAK (709[…]720), generated by GL Biochem (Shangai) Ltd (China) or anti-His antibody to probe for the motor domain alone (GE Healthcare Lifesciences, UK). The data from at least three independent experiments were fitted to a modified Hill equation to determine the apparent Kd.

The nature of series [2]: Size-exclusion chromatography coupled to multi-angle light scattering (SEC-MALS). The format is physicochemical. As to conditions: 100 mM HEPES pH 7.2, 150 mM NaCl. The procedure:
Size-exclusion chromatography with on-line multi-angle light scattering (SEC-MALS) was performed using a GE Superdex 200 10/300 GL column on an ÄKTA FPLC system. MALS measurements were performed using a MiniDAWN in-line detector (Wyatt Technology, Santa Barbara, CA, USA). MCAK motor domain and C terminus were at 2 mg/ml in 100 mM HEPES, pH 7.2, 150 mM NaCl. Protein concentration was monitored using a UV monitor at 280 nm and a refractive index detector was set at 690 nm (Optilab DSP, Wyatt Technology, Santa Barbara, CA, USA). Data were analyzed using Astra software (Wyatt Technology, Santa Barbara, CA, USA) using the refractive index detector and a refractive index increment (dn/dc) value of 0.185 ml/g. Gel phase distribution coefficients (Kav) were determined from the equation Kav = (Ve − Vo)/(Vt − Vo), where Ve, Vo, and Vt represent the elution volume of the protein of interest, the column void volume and the total bed volume of the column, respectively.
A general note: SEC sorts molecules by how far they enter the pores of the column.

A short description of series [3]: Analytical size-exclusion chromatography (oligomeric state / size). The format is physicochemical. The procedure:
Protein expression was induced by addition of 0.5 mM IPTG to BL21(DE3) Codon plus cells transformed with respective constructs at OD600 of 0.7–0.8 for 16 hr at 18°C. Cells were lysed by sonication in lysis buffer (50 mM Hepes, pH 7.4, 200 mM NaCl, 1 mM MgCl2, 1 mM PMSF, 1 mg/ml DNaseI, 2 mg/ml lysozyme, 10 mM Imidazole) and clarified at 20,000 rpm for 1 hr at 4°C. His-tagged and GST-tagged proteins were subsequently purified using Ni-NTA–agarose beads and glutathione-sepharose beads, respectively (GE Healthcare Life Sciences, UK)) according to the manufacturer's guidelines. MCAK constructs containing the motor domain were eluted with elution buffer (50 mM Hepes, pH 7.4, 200 mM NaCl, 1 mM MgCl2, 1 mM ATP, and 300 mM imidazole). Cleavage of the GST tag was performed using the GST-3C protease overnight at 4°C. […] Protein concentrations were determined with a combination of Bradford protein assays and densitometry of Coomassie-stained gels relative to a BSA standard. […]

Series [4] addresses subtilisin-treated microtubules. Kind of series: Microtubule cosedimentation assay, subtilisin-treated microtubules. The class given is binding. The protocol:
as §1
Tubulin (5 mg/ml) was first polymerized into MTs in the presence of 1 mM GTP and gradual addition of 0.05 µM, 0.5 µM and 2 µM taxol for 1 hr at 37°C. The polymerized MTs were then treated with 100 μg/ml subtilisin and incubated at 37°C for 10 min to cleave β-tubulin tails and 120 min to cleave both α- and β-tubulin tails. Each reaction was then terminated with the addition of 3 mM PMSF. DM1A (Abcam, UK) and c-terminal β-tubulin (Sigma, UK) were used to detect the α- and β-tails, respectively by western blotting. The subtilisin treated microtubules were then pelleted at 28°C in a TLA100 rotor at 80,000 rpm for 10 min and the microtubule pellets were resuspended in warm BRB80 buffer to obtain subtilisin treated microtubules. The cosedimentation assays were then performed as described before.

The test system of series [5] is taxol-stabilized microtubules. Kind of series: Microtubule depolymerisation assay. The format is biochemical. The following applies: 50 nM motor domain, 100 nM CT domain, 2 μM taxol-stabilized microtubules. The procedure: Microtubule depolymerization assays were performed essentially as described previously ([Hertzer et al., 2006]). MCAK was diluted to 100 nM in S-buffer containing 1 mM DTT and 2 mM Mg-ATP. For depolymerization assays of the motor domain in presence of the CT domain after GST cleavage and removal, 50 nM of motor domain and 100 nM of the CT domain were used. The microtubule depolymerization assay was initiated by the addition of 2 μM taxol-stabilized microtubules to a reaction buffer containing MCAK. Reactions were incubated at room temperature with increasing times and followed by centrifugation to separate microtubules from free tubulin. The data are represented as mean ± SD from three independent experiments.

B1: motor domain: motor region of MCAK along with the neck linker region (residues 181–583), His-tagged (protein, UniProt Q99661 181-583, looked up, fragment)
chain: SANPVNSVRRKSCLVKEVEKMKNKREEKKAQNSEMRMKRAQEYDSSFPNWEFARMIKEFRATLECHPLTMTDPIEEHRICVCVRKRPLNKQELAKKEIDVISIPSKCLLLVHEPKLKVDLTKYLENQAFCFDFAFDETASNEVVYRFTARPLVQTIFEGGKATCFAYGQTGSGKTHTMGGDLSGKAQNASKGIYAMASRDVFLLKNQPCYRKLGLEVYVTFFEIYNGKLFDLLNKKAKLRVLEDGKQQVQVVGLQEHLVNSADDVIKMIDMGSACRTSGQTFANSNSSRSHACFQIILRAKGRMHGKFSLVDLAGNERGADTSSADRQTRMEGAEINKSLLALKECIRALGQNKAHTPFRESKLTQVLRDSFIGENSRTCMIATISPGISSCEYTLNTLRYAD
modifications: His tag
notes: motor region of MCAK along with the neck linker region (residues 181–583), His-tagged
As to B1, the Kd in series [1] worked out at 640 nM; in series [4] (50 nM motor domain in motor-CT domain complex, subtilisin-treated microtubules (10 or 120 min), absence of nucleotide), 200 nM. In series [2] (SEC-MALS, absence of CT domain, 2 mg/ml), the fraction monomeric result is listed as “over 90%”. Moreover, in series [2] (SEC-MALS), the Monodispersity was found to be 1.005. For the same molecule, in series [2] (SEC-MALS, Superdex 200 10/300 GL, 2 mg/ml, unit printed kDa in text, kD in figure), the “measured molecular weight (MW)” value is reported as roughly 45.3 kDa. Also, the “Stoke Radius” value in series [2] (from SEC calibration curve) is 3.11 nm. In series [3], the “apparent size (gel filtration)” value is roughly 45 kDa. Moreover, in series [4] (50 nM motor domain, subtilisin 120 vs 10 min), the “effect of α-tubulin tail removal on affinity for microtubules lacking β-tubulin tail” value is “did not further modify the affinity”. In addition, the “microtubule depolymerase activity of motor with CT domain, with and without DTT” value in series [5] is reported as “could depolymerize microtubules”.
